The text below walks through data of patent US5827734.

The target in the assay is murine MBP::ob fusion protein (+Gln), construct pCZR90 (mouse).

The substance “Bovine Factor Xa (from UniProt P00743) (enzyme)” registered a Factor Xa cleavage of the MBP::ob fusion protein of 9%.
